# Assay: yeast display, Sf9 membrane polyspecificity reagent, FACS + sequencing; frameworks hold sequencing errors
# In short: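 Galactose induction of a Saccharomyces cerevisiae BJ5465 synthetic nanobody display library ran 36–48 hours. The cells were then stained for 1 hour at 4 °C with 10% biotinylated, detergent-solubilized Sf9 membrane reagent, pulled down on streptavidin microbeads and FACS-sorted into low and high (top ~1%) gates on expression and reagent-binding fluorescence. Labels for polyreactivity follow the gate of origin.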
row,Sequence,polyreactivity (PSR sort gate)
1,QVQLVESGGGLVQAGGSLRLSCAASGSIFPYYAMGWYRQAPGKERELVATITSRGGSTYYADSVKGRFTISRDNAKNTVYLQMNSLKPEDTAVYYCAKEYRYYRRRYDYWGQGTQVTVSS,high polyreactivity
2,QVQLVESGGGLVQAGGSLRLSCAASGRTFFGYAMGWYRQAPGKERELVAAISRGGGRTYYADSVKGRFTISRDNAKNTVYLQMNSLKPEDTAVYYCNAVTFSFYLYDWGQGTQVTVSS,high polyreactivity
3,QVQLVESGGGLVQAGGSLRLSCAASGSTLARNVMGWYRQAPGKERELVAAISTSGGITYYADSVKGRFTISRDNAKNTVYLQMNSLKPEDTADYYCAKYYYNPYSKMDYWGQGTQVTVSS,low polyreactivity
4,QVQLVESGGGLVQAGGSLRLSCAASGRTFGYYGMGWYRQAPGKERELVAAITGSGGSTYYADSVKGRFTISRDNAKNTVYLQMNSLKPEDTAVYYCGATDLSRWTLYDYCGQGTQVTVSS,high polyreactivity
5,QVQHVESRGGLVQAGGSLRLSCAASGSIFFAYAMGWDRQGPGKEREFVAAISASGGSTSYADSVKGRFTISRDNAKNTVYLQMNSLKPEDTAVYYCATEHSVTTYDYWGQGTQVTVSS,low polyreactivity
6,QVQLVESGGGLVQAGGSLRLSCAASGITFRRYAMGWYRKAPGTERELVATITRGDNTYYADSVKGRFTISRDNAKNTVYLQMNSLKPEDTAVYYCAKGWPTDDYDYWGQGTQVTVSS,high polyreactivity
7,QVQLVESGGGLVQAGGSLRLSCAASGNTFSTNAMGWYRHAPGKERELVASISTNGGSTYYADSVKGRFTISRDNAKQTVYLQKNSLKPEDTAVYYCAAYVDWGVWAYLYEYWGQGTQVTVSS,low polyreactivity
8,QVQLVESGGGLVQAGGSLRLSCAASGRTFVNYALGWYRQAPGKERELVAAISGGGGTNYADSVKGRFTISRDNAKNTVYLQMNSLKPEDTAVYYCNAVPSQHDEFDYWGQGTQVTVSS,low polyreactivity
9,QVQLVESGGGLVQAGGSLRFSCAASGFTFSSNAMGWYRQAPGKERELVAAITASGASTYYADSVKGRFTISRDHAKNTVYLQMNSLKPEDTAVYYCAVKTSPRRYYWGQGTQVTVSS,high polyreactivity
10,QVQLEESGGGLVQAGGSLRISCAASGSIFPSYAMGWYRQAPGKERELVAAISSRGGSTYYADSVKGRFTISRDNAKNSVYLQMNSLKPEDTAVYYCNAVAGGVYVDKGYDYWGQGTQVTVSS,high polyreactivity
11,QVQLVESGGGLVQAGGSLRLICAASGFIFRRNARGWSRPAPGTERELVAAISSSGGSTYYADSVKGRFTISRDNAKNTVYLQMNSLKPEDTAVYYCATVLRVTRVDYWGQGTQVTVSS,high polyreactivity
12,QVQLVESGGGLVQAGGSLRLSCAASGSTLYSYAMGWYRQAPGKERELVAAIRRDSGRTYYADSVKGRFTISRDNAKNTVYLQMNSLKPEDTAVYYCAVRKQYSGRYYRAYDYWGQGTQVTVSS,high polyreactivity
13,QVQLVESGGGLVQAGCSLRLSCAASGRIFDFYAMGWYRHAPGKERELVAAISWDGSDTYYADSVKGRFTISRDNAKNTVYLQMNSLKPEDTAVYYCAADYYSPSGHEYNYWGQGTQVTVSS,high polyreactivity
14,QDQHVESGGGLVQAGGRLSLICAASAFISVRNAMGWYRQAPGKERELVAAISSGDTTDYADSLKGRFTISRDNAKNTVYLLMNSLKPEDTAVYYCAAVYSGRYYYWGQGTQVTVSS,low polyreactivity
15,QVQLVESGGGLVQAGGSLRLSCAASGNIFPSYAMGWYRQAPGKERELVASINFSDGYTSYADSVKGRFTISRDNAKNTVYLQMNSLKPEDTAVYNCNADVWYYYYGFKGEEDYWGQGTQVTVSS,low polyreactivity
16,QVQLVESGGGLVQAGGSLRLSCAASGSTFVSNVMGWYRQAPGKERELVAAITSGGSTYYADSVKGRFTISRDNAKNTVYLQMNSLKPEDTAVYYCAAGGRWARWLFPSRYDYWGQGTQVTVSS,low polyreactivity

row,Sequence,polyreactivity (PSR sort gate)
1,QVQLVESGGGLVQAGGSLRLSCAASGRIFVFYAMGWYRQAPGKVREFVATISYSGDTTYYADSVKGRFTISRDNAKNTVYLEMNSLKPEDTAVYYCAADQVPSYYYVPLGYDSWGQGTQVTVSS,low polyreactivity
2,QVQLVESGGGLVQAGGSLRLSCAASGRIFYNYAMGWYRQAPGKERELVAAITGGASTYADSVKGRFTISRDNAKNTVYLQMNSLKPEDTAVYYCAVDYYTYSLASGRTRMDYWGQGTQVTVSS,high polyreactivity
3,QVQLVESGGGLVQAGGSLRLSCAASGSIFYWYAMGWYRQAPGKERELVAAISSSNDSTDYADSVKGRFTISRDNAKNTVYLQMNSLKPEDTAVYYCAARYGTIQYDYWGQGTQVTVSS,low polyreactivity
4,QVQLVESGGGLVQAGGSLRLSCAASGLIFNNNAMGWYRQAPGKERELVAAISYRGGSTYYADSVKGRFTISRDNAKNTVYLQMNSLKPEDTAVYYCAARKISKYDYWGQGTQVTVSS,high polyreactivity
5,QVQLEESGGGVVQAGGSLRLSCAASGRIFNYYTMGWYRQATGKERELVARINSSGSTNLRRLCEGALHNFTRQCEVYRLFTDEQPETGRYRVYYCNADTKRSSREYEYWGQGTQVTVSS,low polyreactivity
6,QVQLVESGGGLVQAGGSLRLSCASSGRIFKKYAMGWYIQAPGKERELVATISSGGSTYYADSVKGRFTISRDNAKNTVYLQMNSLKREDTAGSYCARREYVRRDYFVTTYDYWGQGTQVTVSS,low polyreactivity
7,QVQLVESGGGLVQAGGSLRLSCAASGSILVEYAMGWYRQAPGKERELVAAISSNGGSTYYADSVKGRFTISRDNAKNTVYLQMNSLKPEDTAVYYCATRQSWSDYYLNVDYDYWGQGTKVTVSS,low polyreactivity
8,QVQLVESGGGLVQAGGSLRLSCAASGRTFRFYAMGWYRQAPGKERELVAAITGSGGSTYYADSVKGRFTISRDNAKNTVYLQMNSLKPEDTAVYYCAAQRQQRYYNPEHYNYWGQGTQVTVSS,low polyreactivity
9,QVQLVESGGGLVQAGGSLRLSCSASGSTFPSNAMGWYRQAPGKERELVAAIRGRGGSTYYADSVKGRFTISRDNAKNTVYLQMNSLKPEDTAVYYCAKKVRSYVRWEYDYWGQGTQVTVSS,low polyreactivity
10,QVQLVESGGGLVQAGGSLRLSCAASGSTFPQYAMGWYRQAPGKERELVAAISARGDSTSYADSVKGRFTISRDNAKNTVYLQMNSLKPEDTAVYYCNAPSRNGFSVTDTPDGYDYWGQGTQVTVSS,low polyreactivity
11,QVQLVESGGGLVQAGGSLRLSCAASGSNFSYYAMGWYRQAPGKERELVAAITWRSGRTYYADSVKGRFTISRDNAKNTVYLQMNSLKPEDTAVYYCAAYWWRVKYHGYYYWGQGTQVTVSS,high polyreactivity
12,QVQLVESGVGLVQAGGSLRLRCAASGFIFIHNAMGWYRQAPGKERELVAAISYSGGSTYYADSVKGRFTISRDTAKNTVYLQMNSLKPEDTAVYFCNRVQYYRADRMDYWGQGTQVTVSS,low polyreactivity
13,QDQHVETGGRLVHAGCSLRISCAASGSTFTGYAMGWNRPPPGKERELVAAISSGGSTYYADSVKGRFTISRDNPKNTVYLQMNSLTPEDTAVYDCAAAPRWKASRLYYWGQCTQVTVSS,high polyreactivity
14,QVQLVESGGGLVQAGGSLRLSCAASGRTFLVYAMGWYRQAPGKDRELVAAISSDGSTHYADSVKGRFTISRDNAKKTVYLQMNSLHPEDTAVYYCARDYYAFSYLYDYWGQGTQVTVSS,low polyreactivity
15,QVQLVESGGGLVQAGGSLRLSCAASGRTVRVYAMGWYRQAPGKERELVAAINGGGSTNYADSVKGRFTISRDSAKNTVYLQMNSLKPEDTAVYYCNATGRRSKRIYDYWGQGTQVTVSS,high polyreactivity
16,QVQLVESGGGLVQAGGSLRLSCAASGLTLAPNAMGWYRQAPGKERELVAAITRSGGDTYYADSVKGRFTISRDNAKNTVYLQMNSLKPEDTAVYYCAADYWFRYGTYEYWGQGTQVTVSS,high polyreactivity

# Reference: the nanobody polyreactivity screen of Harvey et al. (2022)
